In patent publication US20250352624A1, “SUPEROXIDE DISMUTASE AND USES THEREOF FOR PREVENTING OR TREATING DRY EYE SYNDROME” (GENOFOCUS, INC., priority 2021, published 2025):

Tests used:
Format in all cases: in vivo
[1] = tested on: experimental dry eye (EDE)-induced C57BL/6 mouse model; assay: Reactive oxygen species (DCF-DA) by flow cytometry
Experimental: (§1) To induce experimental dry eye, 7- to 8-week-old C57BL/6 mice (purchased from Damool Science) were injected subcutaneously with scopolamine hydrochloride at 0.5 mg/0.2 ml three times a day under exposure to a ventilating device for 18 hours a day. The humidity was maintained at 30%, and the temperature was maintained at 25° C. The C57BL/6 mice were classified into 7 groups, depending on concentrations of the oral drug to be administered, as shown in Table 6.
(§2) After inducing experimental dry eye in the experimental mice, the drugs prepared in Example 3 were orally administered at 2 μL per dose once a day to the treatment groups (administered at 13:30 every day). In both eyes of all mice, at baseline, day 5, and day 10, tear volume and tear film break-up time were measured and corneal fluorescent staining score was examined. The mice were then sacrificed and tissue analysis was performed. Each group consisted of 6 animals.
The cornea, conjunctiva, and lacrimal gland were excised, sectioned with scissors, and then shaken with 0.5 mg/mL of collagenase type D (manufactured by Roche Applied Science, Indianapolis, IN, USA) at 37° C. for 60 minutes. The tissue was ground and then allowed to pass through a cell strainer, followed by centrifugation. The number of CD4+IFN-γ+T cells was calculated by performing flow cytometry with fluorescein-conjugated anti-CD4 antibody and phycoerythrin-conjugated anti-IFN-γ antibody, and the number of DCF-DA cells was calculated using the CM-H2DCFDA kit (manufactured by Thermo Fisher Scientific, Waltham, MA, USA).

[2] = tested on: experimental dry eye (EDE)-induced C57BL/6 mouse model; assay: Malondialdehyde (MDA) by ELISA in cornea, conjunctiva and lacrimal gland; conditions: for MDA efficacy as compared with 0.05% CsA: 10 mg/kg oral
Experimental: as §1, §2
The corneas, conjunctivas, and lacrimal glands were excised from both eyes (6 eyes) of 3 animals in each group required for tissue analysis. The samples were homogenized in PBS, and then the lysates were centrifuged at 10000×g for 10 minutes at 4° C. The supernatant was taken and the total amount of protein was measured using the Bradford assay. MDA was detected using an ELISA (Enzyme-linked immunosorbent assay) kit (manufactured by Quantikine, R&D Systems, Minneapolis, MN) containing capture and detection antibodies according to the manufacturer's manual. Using ELISA, MDA levels in the cornea, conjunctiva, and lacrimal gland were measured and recorded, respectively.

[3] = tested on: experimental dry eye (EDE)-induced C57BL/6 mouse model; assay: Goblet cells in conjunctiva (PAS staining histology)
Experimental: as §1, §2
The eye and accessory tissues were excised from one eye of one animal in each group, fixed in 4% paraformaldehyde, embedded in paraffin, and then PAS staining was performed on two cross-sectional pieces of the tissue. In each piece, the density of goblet cells in the conjunctiva was calculated using a microscope and image analysis software.

[4] = conjunctiva, 2.5 mg/kg oral once a day
[5] = conjunctiva, 5 mg/kg oral once a day
[6] = conjunctiva, 10 mg/kg oral once a day
[7] = cornea, 2.5 mg/kg oral once a day
[8] = cornea, 5 mg/kg oral once a day
[9] = cornea, 10 mg/kg oral once a day
[10] = lacrimal gland, 2.5 mg/kg oral once a day
[11] = lacrimal gland, 5 mg/kg oral once a day
[12] = lacrimal gland, 10 mg/kg oral once a day

B1: SodA2: variant Mn-SOD of Bacillus amyloliquefaciens GF423 sodA, Asn73 and Asn136 replaced with Asp, SEQ ID NO: 4; given orally shellac-coated, mixed with dextrin (protein, listed as Bacillus amyloliquefaciens)
chain: MAYKLPELPYAYDALEPHIDKETMTIHHTKHHNTYVTNLNKAIEGSALAEKSVDELVADLNAVPEDIRTAVRDDGGGHANHSLFWTLLSPNGGGEPTGELAEEIKSTFGSFDQFKEKFAAAAAGRFGSGWAWLVVDDGKLEITSTPNQDSPLSEGKTPVLGLDVWEHAYYLNYQNRRPDYISAFWNVVNWDEVARLYSEAK
modifications: shellac coating; dextrin mixture
Q: B1 was tested. Which “amount of reactive oxygen species generated” value (shortened to “amount”) [1, 4] did it give?
A: 55.13±7.41%

Q: And the “amount” value [1, 5]?
A: 57.63±8.16%

Q: And the “amount” value [1, 6]?
A: 53.29±1.19%

Q: What about the “effect of decreasing generation of reactive oxygen species as compared with the CsA group” value ([1]; cornea, 2.5 mg/kg oral) of the same molecule?
A: better effect

Q: What about the “amount” value [1, 7] of the same molecule?
A: 33.57±26.51%

Q: And the “amount” value [1, 8]?
A: 54.53±13.53%

Q: What about the “amount” value [1, 9] of the same molecule?
A: 57.38±23.43%

Q: What about the “amount” value [1, 10] of the same molecule?
A: 59.05±10.77%

Q: What about the “amount” value [1, 11] of the same molecule?
A: 56.03±6.37%

Q: And the “amount” value [1, 12]?
A: 49.92±4.19%

Q: What about the “MDA efficacy as compared with 0.05% CsA” value ([2]; conjunctiva) of the same molecule?
A: superior

Q: And the “MDA efficacy as compared with 0.05% CsA” value ([2]; cornea, lacrimal gland)?
A: similar

Q: And the “MDA concentration, Conjunctiva” value [2, 4]?
A: 21.5 ± 9.26 pmol/mL

Q: What about the “MDA concentration, Conjunctiva” value [2, 5] of the same molecule?
A: 19.0 ± 7.17 pmol/mL

Q: What about the “MDA concentration, Conjunctiva” value [2, 6] of the same molecule?
A: 16.3 ± 9.12 pmol/mL

Q: And the “MDA concentration as compared with the EDE and vehicle groups” value ([2]; cornea, conjunctiva and lacrimal gland, CsA and oral SodA2 groups)?
A: decreased

Q: And the “MDA concentration, Cornea” value [2, 7]?
A: 22.7 ± 13.8 pmol/mL

Q: And the “MDA concentration, Cornea” value [2, 8]?
A: 20.2 ± 14.0 pmol/mL

Q: What about the “MDA concentration, Cornea” value [2, 9] of the same molecule?
A: 18.5 ± 10.6 pmol/mL

Q: And the “MDA concentration, Lacrimal gland” value [2, 10]?
A: 22.6 ± 7.72 pmol/mL

Q: What about the “MDA concentration, Lacrimal gland” value [2, 11] of the same molecule?
A: 18.8 ± 11.6 pmol/mL

Q: What about the “MDA concentration, Lacrimal gland” value [2, 12] of the same molecule?
A: 22.5 ± 11.4 pmol/mL

Q: And the “number of goblet cells in the conjunctiva” value ([3]; 2.5 mg/kg oral once a day)?
A: 27.9±6.9 cells/100 μm

Q: What about the “number of goblet cells as compared with the 0.05% CsA group” value ([3]; 5 mg/kg oral) of the same molecule?
A: more significant increase

Q: What about the “number of goblet cells in the conjunctiva” value ([3]; 5 mg/kg oral once a day) of the same molecule?
A: 35.8±10.2 cells/100 μm

Q: And the “number of goblet cells in the conjunctiva” value ([3]; 10 mg/kg oral once a day)?
A: 32.2±3.9 cells/100 μm

Q: What about the “number of goblet cells in the conjunctiva, change in treatment groups” value ([3]; all treatment groups: 0.05% CsA, SodA2 2.5, 5 and 10 mg/kg oral) of the same molecule?
A: significant increase
